Earlier results as cited in patent US4636489A, “Modified protease inhibitors, process for their preparation, and pharmaceutical compositions prepared therefrom” (Plantorganwerk KG, priority 1983, dated 1987).

B1: eglin C: protease inhibitor from leech extracts consisting of 70 amino acid radicals, described in DE-OS No. 28 08 396 (protein, UniProt P01051 1-70, looked up)
Eglin C: TEFGSELKSFPEVVGKTVDQAREYFTLHYPQYDVYFLPEGSPVTLDLRYNRVRVFYNPGTNVVNHVPHVG
- inhibition of pancreaselastase (pancreaselastase): only poor inhibitors
- inhibition of cathepsin G (cathepsin G): strongly inhibit
- inhibition of trypsin (trypsin): only poor inhibitors
- inhibition of chymotrypsin (chymotrypsin): strongly inhibit
- inhibition of PMN-granulocyte elastase (PMN-granulocyte elastase): strongly inhibit
- inhibition of subtilisin (subtilisin): strongly inhibit
